Laboratory results taken from patent US11597760 (dated 2023).

Experiments:
C5-K109A = C5-K109A (human); test: other, Western blot
human C5 [1] = molecular target: human C5 (human); test: SPR, pH 5.8, 37C
cynomolgus C5 = molecular target: T1, cynomolgus C5 (cynomolgus monkey); test: SPR, pH 7.4, 37C
T1 chain: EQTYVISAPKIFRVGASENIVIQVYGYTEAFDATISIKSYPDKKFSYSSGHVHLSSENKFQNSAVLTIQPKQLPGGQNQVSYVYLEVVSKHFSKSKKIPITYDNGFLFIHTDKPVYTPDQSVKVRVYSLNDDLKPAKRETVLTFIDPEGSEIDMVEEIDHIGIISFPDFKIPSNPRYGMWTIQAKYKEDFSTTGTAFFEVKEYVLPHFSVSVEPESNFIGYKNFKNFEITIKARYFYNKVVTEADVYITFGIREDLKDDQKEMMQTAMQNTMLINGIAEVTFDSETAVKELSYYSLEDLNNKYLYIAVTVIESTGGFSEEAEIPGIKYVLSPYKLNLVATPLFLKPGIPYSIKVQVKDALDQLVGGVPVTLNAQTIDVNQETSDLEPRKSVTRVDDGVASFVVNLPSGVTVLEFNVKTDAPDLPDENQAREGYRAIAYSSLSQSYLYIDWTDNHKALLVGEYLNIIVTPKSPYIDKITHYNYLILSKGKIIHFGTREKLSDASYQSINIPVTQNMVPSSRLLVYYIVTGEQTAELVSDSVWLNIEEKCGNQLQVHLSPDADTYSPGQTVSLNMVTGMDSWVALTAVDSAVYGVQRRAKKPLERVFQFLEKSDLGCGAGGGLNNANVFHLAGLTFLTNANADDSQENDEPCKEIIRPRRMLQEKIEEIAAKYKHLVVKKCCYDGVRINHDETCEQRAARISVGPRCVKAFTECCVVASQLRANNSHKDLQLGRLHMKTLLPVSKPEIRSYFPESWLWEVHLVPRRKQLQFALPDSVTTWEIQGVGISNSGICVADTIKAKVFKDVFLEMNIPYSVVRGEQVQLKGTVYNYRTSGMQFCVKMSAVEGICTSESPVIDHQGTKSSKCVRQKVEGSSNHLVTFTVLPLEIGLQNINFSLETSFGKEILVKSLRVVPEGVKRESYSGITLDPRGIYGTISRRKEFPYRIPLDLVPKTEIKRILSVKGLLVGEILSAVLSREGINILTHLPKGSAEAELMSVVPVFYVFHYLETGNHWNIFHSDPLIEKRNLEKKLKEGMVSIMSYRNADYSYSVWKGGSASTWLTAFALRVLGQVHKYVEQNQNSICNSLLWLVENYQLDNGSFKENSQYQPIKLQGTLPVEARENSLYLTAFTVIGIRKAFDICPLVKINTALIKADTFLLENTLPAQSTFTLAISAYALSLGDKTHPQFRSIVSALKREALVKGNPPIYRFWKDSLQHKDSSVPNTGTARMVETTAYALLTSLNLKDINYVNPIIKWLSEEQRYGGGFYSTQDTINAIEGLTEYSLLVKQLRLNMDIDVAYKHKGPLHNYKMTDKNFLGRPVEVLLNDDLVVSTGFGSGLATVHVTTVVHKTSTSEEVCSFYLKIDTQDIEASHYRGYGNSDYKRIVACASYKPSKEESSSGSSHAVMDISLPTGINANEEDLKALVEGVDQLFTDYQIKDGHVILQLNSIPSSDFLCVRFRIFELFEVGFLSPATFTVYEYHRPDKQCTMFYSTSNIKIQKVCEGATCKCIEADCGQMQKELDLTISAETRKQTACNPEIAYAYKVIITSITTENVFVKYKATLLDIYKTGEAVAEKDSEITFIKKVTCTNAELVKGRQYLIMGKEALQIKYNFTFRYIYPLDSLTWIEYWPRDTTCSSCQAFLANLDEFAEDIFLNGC

C5-D51A = C5-D51A (human); test: other, Western blot
human C5 [2] = molecular target: human C5 (human); test: SPR, pH 7.4, 37C

B1: CFA0305 (antibody, V domains shown)
VH: QSLEESGGDLVKPGASLAVTCTASGFSSSSSYYMCWVRQAPGKGLEWIGCIYTGSGATYYASWAKGRFTISKTSSTTVTLQMTSLTVADTATYFCASDGGYVTPTHAMYLWGPGTLVTVSS
VL: DVVMTQTPASVSAAVGGTVTIKCQASQNIGSDLAWYQQKPGQPPRLLIYGASKLASGVSSRFSGSGSGKEFTLTISDLECADAVTYYCQCTFVGSSYGNAFGGGTEVVVK
- binding result (C5-K109A): no binding
- Kd (human C5 [1]): 430 nM
- Kd (cynomolgus C5): 5.54 nM
- binding result (C5-D51A): no binding
- Kd (human C5 [2]): 15.4 nM
